Measurements taken from patent publication US20110189194A1, “USE OF CD95 INHIBITORS FOR THE TREATMENT OF INFLAMMATORY DISORDERS” (Deutsches Krebsforschungszentrum Stiftung des offentlichen …, priority 2008, published 2011).
Entries after “also recorded” stand apart in the source; their conditions may differ.

T1: human CD95L (Homo sapiens, UniProt P48023)
T1 construct: T4 (bacteriophage T4 fibritin foldon trimerisation domain)
T1 sequence (P48023 with tags, fused parts or gaps limits assumed): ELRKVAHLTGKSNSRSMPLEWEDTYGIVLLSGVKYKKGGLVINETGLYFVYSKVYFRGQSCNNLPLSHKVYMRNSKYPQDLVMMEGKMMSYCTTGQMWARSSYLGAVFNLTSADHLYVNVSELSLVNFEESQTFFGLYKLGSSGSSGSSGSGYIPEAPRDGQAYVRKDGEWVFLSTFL

T2: mouse CD95L (Mus musculus, UniProt P41047)
T2 construct: T4 (bacteriophage T4 fibritin foldon trimerisation domain)
T2 sequence (P41047 with tags, fused parts or gaps limits assumed): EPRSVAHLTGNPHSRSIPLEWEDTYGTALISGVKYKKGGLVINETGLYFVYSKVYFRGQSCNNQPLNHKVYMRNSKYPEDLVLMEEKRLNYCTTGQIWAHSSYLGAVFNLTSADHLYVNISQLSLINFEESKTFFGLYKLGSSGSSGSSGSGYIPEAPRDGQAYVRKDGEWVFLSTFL


Key:
[1] = treated within the first 8 h of injury, compared to placebo, naloxone, or MPSS at later time points; cited from earlier work
injured spinal cord [2] = experiment: Gene expression profiling (microarray) of spinal cord 24 h after SCI; format: in vivo, mice; conditions: compared to vehicle-treated
Experimental: (§1) Mice were treated intravenously 5 minutes after SCI or induction of thioglycolate-induced peritonitis with 50 μg (solved in 200 μl sterile PBS) of either CD95-RB69 or a mutated form, CD95-(R87S)-RB69, which is unable to bind CD95L.
For tissue, spinal cords were dissected out and RNA was extracted with the mirVana microRNA Extraction Kit essentially according to the manufacturer's protocol (Ambion #AM1560). mRNA of injured mice were represented as normalized to the respective uninjured animals. Cells from peritoneal exudates or bone-marrow derived cells were washed with PBS and taken up in RLT-buffer containing β-mercaptoethanol. RNA was extracted using the RNeasy Mini Kit (Qiagen, #74104).
.Cel files were generated using Affymetrix software and imported into Chipinspector. The data were analyzed by Genomatix Chipinspector as described by the manufacturer's guidelines (Genomatix GmbH, Munich, Germany, http://www.genomatix.de). dChip software was used for hierarchical clustering of datasets (http://biosuntharvard.edu/complab/dchip/). A 5% p-value was applied as a cut-off. […]

injured spinal cord [3] = experiment: Immune cell infiltration into the injured spinal cord after SCI (flow cytometry); format: in vivo, mice
Experimental: SCI models: Transection injury of the spinal cord was performed as previously described (Demjen et al., 2004). For the crush injury model, forceps were held on the spinal cord for 15 seconds resulting in a lateral compression of the spinal cord (Plemel et al., 2008). Immediately following injury and for an additional week mice received antibiotics (Gentamycin, 5 ml/kg of a 0.2 mg/ml solution) to prevent infections. Post-operative care included housing of the animals at 27° C., food and water ad libitum, and manual expression of the bladders once daily.
as §1
Stainings were performed on cells derived from bone marrow, peritoneum, blood or spinal cord tissue. For preparation of mouse cells derived from spinal cord tissue, the animals were perfused with HBSS to remove blood from the organs. Then the spinal cord (1 cm around the lesion site) was isolated and lysed for 3 h in thermolysin (0.5 mg/ml, Sigma #T-7902) on a shaker at 37° C. Tissue was incubated for 10 more minutes in trypsin 0.5%-EDTA (Invitrogen #25300096) and finally homogenized by passing 10 times through a Pasteur pipette and through a 40 μm cell strainer (BD #352340).
For all stainings, cells were resuspended in FACS buffer (PBS, 0.2% NaN3) and preincubated in Fc block for 10 minutes before stained with the respective antibodies 30 minutes on ice. For intracellular stainings blood samples were fixed with 4% PFA after Ery Lysis and permeabilized with methanol before the staining. Samples were run on a FACSCantoll flow cytometer (BD) and analyzed using FACSDiva (BD) software or FlowJo software. For all FACS analyses done on cells derived from spinal cord tissue 1,000,000 events were counted.
For all tissue analysis, neutrophils were identified as CD45 positive, GR-1 high-positive and their characteristic forward (FSC) and side scatter (SSC) profile. […]

human CD95L = target: T1, human CD95L; experiment: Neutralisation of human CD95L-T4 induced apoptosis on Jurkat cells (DEVD-AFC cleavage); format: cell-based; conditions: 250 ng/ml human CD95L-T4
Experimental: (§2) Mutation of R87S abrogates the ability of the CD95-RB69 protein to inhibit CD95L-mediated killing of Jurkat cells. Jurkat cells were incubated with 250 ng/ml of human (A) or mouse (B) CD95L-T4 in the presence of wild-type and mutant CD95-RB69 in duplicates for each concentration of the fusion proteins. Decreased cell death is represented by low DEVD-AFC cleavage rates.
(§3) While we were using a human CD95 fusion protein in mouse, we had to analyse the binding of the R87S based control-protein for the human CD95/murine CD95L-interaction prior to the studies performed. We addressed this question by examining the ability of the CD95-fusion proteins to neutralise the apoptosis inducing capacity of either human or mouse CD95L on Jurkat cells in vitro.

mouse CD95L = target: T2, mouse CD95L; experiment: Neutralisation of mouse CD95L-T4 induced apoptosis on Jurkat cells (DEVD-AFC cleavage); format: cell-based; conditions: 250 ng/ml mouse CD95L-T4
Experimental: as §2, §3

peritoneum = experiment: Thioglycolate-induced peritonitis, infiltration of neutrophils; format: in vivo, mice
Experimental: as §1
For thioglycolate-induced peritonitis, 1 ml of 3% thioglycolate broth (Fluka #70157) was injected i.p. in CD95L^f/f;LysMcre and CD95L^f/f mice or in wt mice acutely treated with CD95-RB69 or its respective control. In this model, neutrophils are known to start infiltrating the peritoneum within the first hours, whereas macrophage infiltration peaks at 72 h. At the indicated times, mice were sacrificed, blood samples collected and peritoneal cavities lavaged with 10 ml sterile Hanks balanced salt solution (HBSS; Invitrogen #14170-138) containing 0.25% bovine serum albumin (Roche #10735094001). Total cell counts were performed in a Neubauer hematocytometer (Brand), and differential cell counts were carried out by flow cytometry. Results are expressed as the absolute number of neutrophils or macrophages×10^5/cavity. For every experiment performed, blood immune cell populations were analyzed by the appropriate cell markers.

[4] = 24 h after SCI, 50 μg i.v. 5 minutes after SCI, 1,000,000 events counted

Row | Molecule | motor and sensory function of spinal injured patients [1] | expression of genes involved in apoptosis (injured spinal cord [2]) | expression of genes involved in the immune response (injured spinal cord [2]) | CD45 cells in injured spinal cord, Events ± SEM (injured spinal cord [3]; [4]) | Neutrophils in injured spinal cord, Events ± SEM (injured spinal cord [3]; [4]) | infiltration of neutrophils into the lesion site (in words) (injured spinal cord [3]; 24 hours after injury, systemic administration) | neutralisation of the apoptotic activity of human CD95L (human CD95L) | neutralisation of the apoptotic activity of mouse CD95L (mouse CD95L) | Neutrophil number ± SEM in peritoneal cavity (peritoneum; 6 h after thioglycolate, 50 μg i.v. 5 minutes after induction) | infiltration of neutrophils into the peritoneum (in words) (peritoneum; 6 hours after thioglycolate injection)
1 | C[C@H]1C[C@@H]2[C@H]([C@@H](O)C[C@@]3(C)[C@H]2CC[C@]3(O)C(=O)COC(=O)CCC(=O)O)[C@@]2(C)C=CC(=O)C=C12 [MPSS, methylprednisolone sodium succinate] | significantly improved motor and sensory function |  |  |  |  |  |  |  |  | 
2 | CD95-RB69: CD95L-neutralizing trimeric fusion protein: human CD95-ECD (M1-E168) fused to bacteriophage RB69 fibritin foldon domain, with streptag-II (protein, CD95-RB69 fusion protein, CD95L-neutralizing trimeric fusion protein: human CD95-ECD (M1-E168) fused to bacteriophage RB69 fibritin foldon domain, with streptag-II) MVGIWTLLPLVLTSVARLSSKSVNAQVTDINSKGLELRKTVTTVETQNLEGLHHDGQFCHKPCPPGERKARDCTVNGDEPDCVPCQEGKEYTDKAHFSSKCRRCRLCDEGHGLEVEINCTRTQNTKCRCKPNFFCNSTVCEHCDPCTKCEHGIIKECTLTSNTKCKEEGSSGSSGSSGSGYIEDAPSDGKFYVRKDGAWVELPTASGPSSSSSSAWSHPQFEK |  | reduced; also recorded: down-regulation | down-regulation | CD45: 698 ± 57 Events | Neutrophils: 400 ± 54 Events | decreased; also recorded: reduced | efficiently neutralises | efficiently neutralises | 13.92 ± 1.46 *10^5 | significantly reduced; also recorded: Reduced infiltration
